Reference: article PMC3510474, “Distinct gating mechanisms revealed by the structures of a multi-ligand gated K^+ channel” (eLife, 2012)
Values belong to the compound of their own block, whether it stands above or below them.

What was measured:
[1] = target: T1, GsuK (Geobacter sulfurreducens, UniProt Q74FS9, E52A/L97D, form not given); assay: X-ray crystal structure, […] Å (co-crystallization); type: binding; settings: 1 mM ADP, pH 9.0; Ca2+-bound closed gating ring; nucleotide site on RCK2; allosteric
T1 construct: gene GSU0527; full-length channel from Ala9 with extra N-terminal MQRGS; C-terminal His-tag cut by thrombin; E. coli BL21(DE3); tetramer; model residues 17-564

[2] = target: full-length GsuK channel, wild type (with E52A and Q77E or R) (Geobacter sulfurreducens); assay: crystal structure; full-length channel in DM with E. coli polar lipids, about 6 mg/ml, 20°C, 13–18% PEG3350, 250–500 mM KSCN, 100 mM CHES pH 9.0; space group C2, four subunits in the asymmetric unit as two half channels; L97D also co-crystallised with 1 mM ADP or NAD+
[3] = target: full-length GsuK channel, wild type (with E52A and Q77E or R) (Geobacter sulfurreducens); assay: SEC; Superdex-200 (10/30) in 20 mM CHES pH 9.0, 150 mM KSCN, 0.1 mg/ml E. coli polar lipid, 2 mM DTT, 4 mM DM (full-length GsuK channel)
[4] = target: GsuK intracellular subunit (Geobacter sulfurreducens); assay: crystal structure; GsuK intracellular subunit, about 8 mg/ml in LDAO, sitting drop at 20°C, 20–23% PEG3350, 120 mM KCl, 80 mM NaNO3, 1% glycerol, 100 mM Bis-Tris propane pH 8.5; space group I222, four subunits forming a gating ring in the asymmetric unit; 3.0 Å
[5] = target: GsuK intracellular subunit (Geobacter sulfurreducens); assay: SEC; Superdex-200 (10/30) in 50 mM Tris–HCl pH 8.0, 250 mM KCl, 2 mM DTT, 4 mM LDAO (GsuK intracellular subunit)
[6] = target: T1, GsuK; assay: X-ray crystal structure, […] Å (co-crystallization); type: binding; settings: 1 mM NAD+, pH 9.0; Ca2+-bound closed gating ring; nucleotide site on RCK2, nicotinamide beneath RCK1 helix αF; partial occupancy; allosteric
[7] = target: full-length GsuK channel, L97D mutant (Geobacter sulfurreducens); assay: crystal structure; full-length channel in DM with E. coli polar lipids, about 6 mg/ml, 20°C, 13–18% PEG3350, 250–500 mM KSCN, 100 mM CHES pH 9.0; space group C2, four subunits in the asymmetric unit as two half channels; L97D also co-crystallised with 1 mM ADP or NAD+

T1 sequence (Q74FS9 entry or part of it E52A/L97D, form open): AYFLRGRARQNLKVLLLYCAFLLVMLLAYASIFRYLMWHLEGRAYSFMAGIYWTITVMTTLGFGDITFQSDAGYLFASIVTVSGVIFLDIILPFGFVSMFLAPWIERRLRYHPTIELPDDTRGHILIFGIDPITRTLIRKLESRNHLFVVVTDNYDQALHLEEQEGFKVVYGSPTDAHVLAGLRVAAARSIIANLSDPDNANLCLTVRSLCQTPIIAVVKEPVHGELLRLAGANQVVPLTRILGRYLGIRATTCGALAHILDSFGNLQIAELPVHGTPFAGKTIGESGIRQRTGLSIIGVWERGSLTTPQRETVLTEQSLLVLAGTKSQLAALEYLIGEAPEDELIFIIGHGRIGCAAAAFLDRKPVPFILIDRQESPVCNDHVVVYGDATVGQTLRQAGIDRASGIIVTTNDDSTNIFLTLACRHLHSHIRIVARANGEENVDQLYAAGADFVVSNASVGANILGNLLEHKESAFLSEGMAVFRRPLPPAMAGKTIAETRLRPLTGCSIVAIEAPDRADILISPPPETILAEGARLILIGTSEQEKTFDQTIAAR

Compound: Nc1ncnc2c1ncn2[C@@H]1O[C@H](COP(=O)(O)OP(=O)(O)O)[C@@H](O)[C@H]1O [ADP]
X-ray crystal structure, 2.8 Å (co-crystallization) [1]: we also co-crystallized the L97D mutant with ADP and NAD^+

stoichiometry N [2]: 4
stoichiometry N [3]: 4
Compound: full-length GsuK channel, wild type (with E52A and Q77E or R) (natural protein)

stoichiometry N [4]: 4
stoichiometry N [5]: 4
Compound: GsuK intracellular subunit (domain or fragment)

Compound: NC(=O)c1ccc[n+]([C@@H]2O[C@H](COP(=O)(O)OP(=O)(O)OC[C@H]3O[C@@H](n4cnc5c(N)ncnc54)[C@H](O)[C@@H]3O)[C@@H](O)[C@H]2O)c1 [NAD^+]
X-ray crystal structure, 3.2 Å (co-crystallization) [6]: we also co-crystallized the L97D mutant with ADP and NAD^+

stoichiometry N [7]: 4
Compound: full-length GsuK channel, L97D mutant (natural protein)
